# Reference: US20160208005A1 (Astellas, published 2016)
# T1: human TSLP receptor-mouse Fc fusion protein (human (receptor part), mouse (Fc part))
# T1 construct: Expressed in FreeStyle 293 cells and purified on Protein G; also called fusion protein of human TSLP receptor and mouse Fc
# T1 chain: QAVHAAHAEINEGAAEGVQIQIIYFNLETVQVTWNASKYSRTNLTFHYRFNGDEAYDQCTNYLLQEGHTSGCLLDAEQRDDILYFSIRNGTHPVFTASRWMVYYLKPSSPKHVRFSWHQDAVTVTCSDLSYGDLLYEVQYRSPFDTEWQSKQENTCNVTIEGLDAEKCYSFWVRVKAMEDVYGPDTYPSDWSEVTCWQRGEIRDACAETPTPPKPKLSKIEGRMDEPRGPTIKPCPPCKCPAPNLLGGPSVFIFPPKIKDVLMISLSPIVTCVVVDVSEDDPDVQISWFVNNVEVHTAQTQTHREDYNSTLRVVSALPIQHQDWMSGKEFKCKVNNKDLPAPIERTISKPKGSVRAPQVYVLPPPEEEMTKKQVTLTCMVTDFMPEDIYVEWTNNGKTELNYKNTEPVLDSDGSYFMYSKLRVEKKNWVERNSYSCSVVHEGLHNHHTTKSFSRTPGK
# T2: human TSLP receptor (human, UniProt Q9HC73 23-371)
# T2 sequence (looked up): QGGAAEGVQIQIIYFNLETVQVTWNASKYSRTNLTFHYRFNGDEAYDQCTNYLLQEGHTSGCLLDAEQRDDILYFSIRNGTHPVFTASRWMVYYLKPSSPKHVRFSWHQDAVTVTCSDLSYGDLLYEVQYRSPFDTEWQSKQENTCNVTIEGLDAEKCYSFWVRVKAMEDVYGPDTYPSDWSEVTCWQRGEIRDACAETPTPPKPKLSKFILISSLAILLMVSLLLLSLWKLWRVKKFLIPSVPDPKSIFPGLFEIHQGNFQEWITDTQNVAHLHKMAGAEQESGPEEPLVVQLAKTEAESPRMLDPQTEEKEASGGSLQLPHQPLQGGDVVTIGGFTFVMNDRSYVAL
# What was measured:
# [1] = target: T1, human TSLP receptor-mouse Fc fusion …; assay: SPR (Biacore 2000), antibody captured, human TSLP receptor-mouse Fc as analyte; reference TSLPR-012_141
# Procedure: (§1) In the SPR analysis, the analysis was performed using Biacore (registered trademark) 2000 (GE Healthcare Japan Corporation). Respective anti-human TSLP receptor antibodies were immobilized on the surface of a sensor chip CM5 using a Human Antibody Capture Kit and an Amine Coupling Kit (GE Healthcare Japan Corporation). The human TSLP receptor-mouse Fc fusion protein obtained in Example 1 was serially diluted with an HBS-EP solution (GE Healthcare Japan Corporation), and 100 μL of the solution was added to the flow path at a flow rate of 50 μL/min. By this measurement system, binding rate constant (ka), dissociation rate constant (kd), and dissociation constant (KD) of the human TSLP receptor-mouse Fc fusion protein and the anti-human TSLP receptor antibody were calculated using data analysis software (BIA Evaluation) (Table 1).
# [2] = target: T1, human TSLP receptor-mouse Fc fusion …; assay: SPR (Biacore 2000), antibody captured on CM5 chip by Human Antibody Capture Kit, human TSLP receptor-mouse Fc as analyte
# Procedure: as §1
# human TSLP receptor [3] = target: T2, human TSLP receptor; assay: cell-based or functional assay
# human TSLP receptor [4] = target: T2, human TSLP receptor; assay: cell-based or functional assay; remark: listed apart in the source
binder,measurement,setting,value
"fully human T7-27 (antibody, human IgG1, kappa, V domains shown, deletion of lysine of the heavy chain C terminal occurred in a large part of the purified antibody, Human IgG1/kappa; Expressed in FreeStyle 293 or CHO-K1SV cells; also called fully human antibody of T7-27) VH: EVQLLESGGGLVQPGGSLRLSCAASGFTFRSSAMHWVRQAPGKGLKWVSSVSGSGAGTYYADSVKGRFTISRDNPKNTLYLQMNSLRAEDTAVYYCVKEGGSRGFDYWGQGTLVTVSS VL: DIQMTQSPSSLSASVGDRVTITCRASQDISNYLAWFQQKPGKAPKSLIYTASSLQSGVPSKFSGSGSGTDFTLTISSLQPEDFATYYCQQYNLYPPTFGQGTKVEIKR",fold binding activity compared to TSLPR-012_141,[1],~3 fold
same,Kd,[2],4.1 nM
same,koff,[2],0.000125 s⁻¹
same,fold inhibition activity against TSLP-induced MDC proteins production compared to TSLPR-012_141,human TSLP receptor [3],~9 fold
same,fold inhibition activity against human TSLP-induced TARC mRNA expression compared to TSLPR-012_141,human TSLP receptor [3],~12 fold
same,IC50 (ng/mL); TSLP-induced MDC proteins production inhibition using human PBMC (5 ng/mL human TSLP mutant-Flag protein),human TSLP receptor [4],0.12 ng/mL
